The values that follow come from the supplement of paper PMC7877785.

± gives the uncertainty stated by the source.

The nature of the data set: self-splicing fitness, log relative to wild type (ln ratio); higher = more splicing; Tetrahymena group I intron in knt gene, E. coli kanamycin selection, DiMSum; sequences stand for … in CUCUCU…GGAGGGAAAAGUUAUCAGGCAUGCACCUGGUAGCUAGUCUUUAAACCAAUAGAUUGCAUCGGUUUAAAAGGCAAGACCGUCAAAUUGCGGGAAAGGGGUCAACAGCCGUUCAGUACCAAGUCUCAGGGGAAACUUUGAGAUGGCCUUGCAAAGGGUAUGGUAAUAAGCUGACGGACAUGGUCCUAACCACGCAGCCAAGUCCUAAGUCAACAGAUCUUCUGUUGAUAUGGAUGCAGUUCACAGACUAAAUGUCGGUCGGGGAAGAUGUAUUCUUCUCAUAAGAUAUAGUCGGACCUCUCCUUAAUGGGAGCUAGCGGAUGAAGUGAUGCAACACUGGAGCCGCUGGGAACUAAUUUGUAUGCGAAAGUAUAUUGAUUAGUUUUGGAGUACUCGUGGUCG
Put shortly: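 Colonies from six replicate transformations of E. coli BL21(DE3) were pooled and amplicon-sequenced on an Illumina HiSeq 2500. The library placed an intron with all eight P1ex-region nucleotides randomised inside the knt kanamycin-resistance gene on pET-22b(+), and cells grew overnight at 37°C or 30°C on LB agar with or without 25 μg/mL kanamycin (plus 100 μg/mL carbenicillin, 50 μM IPTG, 0.2% rhamnose). Fitness is the DiMSum error-weighted combination of wild-type-normalised replicate fold changes, kanamycin versus none.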

Turning to CUGCAGCAAUAUUACGCGUC, the “self-splicing fitness (ln)” value runs as follows: (30 °C) -3.98 ± 0.35; (37 °C) -2.05 ± 0.32.

As to CUGCAGCAAUAUUACGCUGC, the “self-splicing fitness (ln)” value (30 °C) is -2.88 ± 0.29.

Turning to CUGCAGCAAUAUUACGGAUA, the “self-splicing fitness (ln)” value is, setting by setting: (30 °C) -3.58 ± 0.29; (37 °C) -2.69 ± 0.25.

Regarding CUGCAGCAAUAUUACGGAUU, the “self-splicing fitness (ln)” value is, setting by setting: (30 °C) -3.49 ± 0.18; (37 °C) -1.8 ± 0.16.

On to CUGCAGCAAUAUUACGGCUU, for which the “self-splicing fitness (ln)” value by setting is: (30 °C) -4.37 ± 0.36; (37 °C) -2.23 ± 0.28.

In the case of CUGCAGCAAUAUUACGGGCU, the “self-splicing fitness (ln)” value was -4.01 ± 0.17 (30 °C) and -1.81 ± 0.17 (37 °C).

With CUGCAGCAAUAUUACGUACC, the “self-splicing fitness (ln)” value by setting is: (30 °C) -3.22 ± 0.19; (37 °C) -2.68 ± 0.44.

Regarding CUGCAGCAAUAUUACGUAGC, the “self-splicing fitness (ln)” value runs as follows: (30 °C) -2.66 ± 0.15; (37 °C) -1.95 ± 0.18.

For CUGCAGCAAUAUUACGUCUU, the “self-splicing fitness (ln)” value is -3.15 ± 0.11 (30 °C) and -2.64 ± 0.12 (37 °C).

For CUGCAGCAAUAUUACGUGUG, the “self-splicing fitness (ln)” value was -1.65 ± 0.043 (30 °C) and -1.27 ± 0.06 (37 °C).

As for CUGCAGCAAUAUUACGUUAG, the “self-splicing fitness (ln)” value was -2.97 ± 0.1 (30 °C) and -1.19 ± 0.1 (37 °C).

For CUGCAGCAAUAUUACGUUGA, the “self-splicing fitness (ln)” value was -3.42 ± 0.2 (30 °C) and -3.21 ± 0.24 (37 °C).

As for CUGCAGCAAUAUUACGUUGG, the “self-splicing fitness (ln)” value was -2.82 ± 0.14 (30 °C) and -3.09 ± 0.27 (37 °C).

As to CUGCAGCAAUAUUACGUUUG, the “self-splicing fitness (ln)” value runs as follows: (30 °C) -2.61 ± 0.094; (37 °C) -0.958 ± 0.098.

With CUGGAGCAAUAUUACGACGG, the “self-splicing fitness (ln)” value was -3.79 ± 0.38 (30 °C) and -3.09 ± 0.43 (37 °C).

With CUGGAGCAAUAUUACGAGUU, the “self-splicing fitness (ln)” value reads like this: (30 °C) -2.26 ± 0.13; (37 °C) -3.51 ± 0.33.

CUGGAGCAAUAUUACGAUAU: the “self-splicing fitness (ln)” value by setting is: (30 °C) -2.36 ± 0.35; (37 °C) -2.54 ± 0.41.

Turning to CUGGAGCAAUAUUACGCAAG, the “self-splicing fitness (ln)” value by setting is: (30 °C) -2.82 ± 0.21; (37 °C) -2.08 ± 0.27.

CUGGAGCAAUAUUACGCAUG: the “self-splicing fitness (ln)” value was -2.07 ± 0.13 (30 °C) and -0.898 ± 0.17 (37 °C).

For the sequence CUGGAGCAAUAUUACGCCGA, the “self-splicing fitness (ln)” value (30 °C) is -1.18 ± 0.34.

As to CUGGAGCAAUAUUACGCGCG, the “self-splicing fitness (ln)” value was -2.2 ± 0.14 (30 °C) and -0.917 ± 0.13 (37 °C).

On to CUGGAGCAAUAUUACGCGUC, for which the “self-splicing fitness (ln)” value by setting is: (30 °C) -3.41 ± 0.27; (37 °C) -1.76 ± 0.27.

With CUGGAGCAAUAUUACGCUCA, the “self-splicing fitness (ln)” value by setting is: (30 °C) -3.4 ± 0.36; (37 °C) -0.5 ± 0.3.

Turning to CUGGAGCAAUAUUACGCUUU, the “self-splicing fitness (ln)” value runs as follows: (30 °C) -3.02 ± 0.32; (37 °C) -3.22 ± 0.47.

In the case of CUGGAGCAAUAUUACGGAAC, the “self-splicing fitness (ln)” value was -3.5 ± 0.33 (30 °C) and -2.64 ± 0.3 (37 °C).

Consider CUGGAGCAAUAUUACGGACU, for which the “self-splicing fitness (ln)” value by setting is: (30 °C) -3.12 ± 0.25; (37 °C) -2.07 ± 0.46.

For the sequence CUGGAGCAAUAUUACGGCAU, where the note is “30 °C”, the “self-splicing fitness (ln)” value is -3.26 ± 0.47.

Consider CUGGAGCAAUAUUACGGCUA, for which, under “37 °C”, the “self-splicing fitness (ln)” value is -1.11 ± 0.47.

With CUGGAGCAAUAUUACGGGAG, the “self-splicing fitness (ln)” value is, setting by setting: (30 °C) -3.19 ± 0.28; (37 °C) -0.913 ± 0.19.

Take CUGGAGCAAUAUUACGGGCA: for the setting “30 °C”, the “self-splicing fitness (ln)” value is -1.06 ± 0.38.

Consider CUGGAGCAAUAUUACGGUGC, for which the “self-splicing fitness (ln)” value (30 °C) is -3.49 ± 0.48.

In the case of CUGGAGCAAUAUUACGUAAC, the “self-splicing fitness (ln)” value is, setting by setting: (30 °C) -3.25 ± 0.32; (37 °C) -1.86 ± 0.3.

Regarding CUGGAGCAAUAUUACGUGCU, the “self-splicing fitness (ln)” value by setting is: (30 °C) -2.27 ± 0.23; (37 °C) -2.91 ± 0.34.

Regarding CUGUAGCAAUAUUACGAAAG, the “self-splicing fitness (ln)” value (30 °C) was -1.61 ± 0.1 and the “self-splicing fitness (ln)” value (37 °C) is -0.788 ± 0.14.

Turning to CUGUAGCAAUAUUACGACAG, the “self-splicing fitness (ln)” value was -4.61 ± 0.3 (30 °C) and -1.97 ± 0.21 (37 °C).

In the case of CUGUAGCAAUAUUACGACGU, the “self-splicing fitness (ln)” value (30 °C) was -1.13 ± 0.21 and the “self-splicing fitness (ln)” value (37 °C) was -1.54 ± 0.26.

Regarding CUGUAGCAAUAUUACGAGGA, the “self-splicing fitness (ln)” value by setting is: (30 °C) -2.78 ± 0.41; (37 °C) -1.62 ± 0.32.

Consider CUGUAGCAAUAUUACGCAAU, for which the “self-splicing fitness (ln)” value is -2.63 ± 0.36 (30 °C) and -1.99 ± 0.25 (37 °C).

Turning to CUGUAGCAAUAUUACGCAGG, the “self-splicing fitness (ln)” value (30 °C) is -3.56 ± 0.27 and the “self-splicing fitness (ln)” value (37 °C) is -2.73 ± 0.2.

In the case of CUGUAGCAAUAUUACGCGAA, the “self-splicing fitness (ln)” value is -1.86 ± 0.35 (30 °C) and -2.26 ± 0.45 (37 °C).

As to CUGUAGCAAUAUUACGCUCG, the “self-splicing fitness (ln)” value was -1 ± 0.18 (30 °C) and -0.773 ± 0.25 (37 °C).

In the case of CUGUAGCAAUAUUACGCUUA, the “self-splicing fitness (ln)” value runs as follows: (30 °C) -3.24 ± 0.37; (37 °C) -3.24 ± 0.43.

For CUGUAGCAAUAUUACGGGUU, the “self-splicing fitness (ln)” value runs as follows: (30 °C) -3.94 ± 0.23; (37 °C) -3.13 ± 0.31.

Consider CUGUAGCAAUAUUACGGUCU, for which the “self-splicing fitness (ln)” value reads like this: (30 °C) -3.53 ± 0.14; (37 °C) -2.96 ± 0.21.

In the case of CUGUAGCAAUAUUACGGUUU, the “self-splicing fitness (ln)” value (30 °C) is -4.11 ± 0.26 and the “self-splicing fitness (ln)” value (37 °C) was -2.69 ± 0.32.

Regarding CUGUAGCAAUAUUACGUCCU, the “self-splicing fitness (ln)” value (30 °C) is -3.57 ± 0.4.

As for CUGUAGCAAUAUUACGUGGG, the “self-splicing fitness (ln)” value runs as follows: (30 °C) -3.78 ± 0.22; (37 °C) -2.05 ± 0.18.

As for CUGUAGCAAUAUUACGUUAC, the “self-splicing fitness (ln)” value (30 °C) is -2.77 ± 0.34 and the “self-splicing fitness (ln)” value (37 °C) was -1.72 ± 0.32.

On to CUUAAGCAAUAUUACGAAGG, for which the “self-splicing fitness (ln)” value (30 °C) was -2.89 ± 0.17 and the “self-splicing fitness (ln)” value (37 °C) was -1.54 ± 0.24.

As for CUUAAGCAAUAUUACGACAU, the “self-splicing fitness (ln)” value by setting is: (30 °C) -3.434 ± 0.023; (37 °C) -2.11 ± 0.036.

With CUUAAGCAAUAUUACGAUCC, the “self-splicing fitness (ln)” value (30 °C) is -3.31 ± 0.44.

Turning to CUUAAGCAAUAUUACGAUCG, the “self-splicing fitness (ln)” value is, setting by setting: (30 °C) -0.53 ± 0.082; (37 °C) 0.874 ± 0.12.

In the case of CUUAAGCAAUAUUACGAUGC, the “self-splicing fitness (ln)” value is -3.42 ± 0.35 (30 °C) and -2.1 ± 0.33 (37 °C).

On to CUUAAGCAAUAUUACGAUGG, for which the “self-splicing fitness (ln)” value (30 °C) is -1.17 ± 0.082 and the “self-splicing fitness (ln)” value (37 °C) is -0.43 ± 0.11.

As to CUUAAGCAAUAUUACGAUUA, the “self-splicing fitness (ln)” value was -3.71 ± 0.26 (30 °C) and -2.72 ± 0.21 (37 °C).

In the case of CUUAAGCAAUAUUACGCAAU, the “self-splicing fitness (ln)” value (37 °C) was -2.62 ± 0.44.

On to CUUAAGCAAUAUUACGCACC, for which the “self-splicing fitness (ln)” value (30 °C) was -1.86 ± 0.45.

On to CUUAAGCAAUAUUACGCCCU, for which the “self-splicing fitness (ln)” value (30 °C) was -3.17 ± 0.32 and the “self-splicing fitness (ln)” value (37 °C) was -1.96 ± 0.43.

As to CUUAAGCAAUAUUACGCCUA, the “self-splicing fitness (ln)” value (30 °C) was -1.91 ± 0.38.

Take CUUAAGCAAUAUUACGCCUU: the “self-splicing fitness (ln)” value (37 °C) is -2.63 ± 0.39.

As to CUUAAGCAAUAUUACGCGUC, the “self-splicing fitness (ln)” value by setting is: (30 °C) -2.08 ± 0.12; (37 °C) -3.25 ± 0.23.

In the case of CUUAAGCAAUAUUACGCUAA, the “self-splicing fitness (ln)” value is -3.21 ± 0.39 (30 °C) and -1.58 ± 0.3 (37 °C).

For the sequence CUUAAGCAAUAUUACGCUAC, the “self-splicing fitness (ln)” value (30 °C) was -4.22 ± 0.42 and the “self-splicing fitness (ln)” value (37 °C) is -2.34 ± 0.36.

In the case of CUUAAGCAAUAUUACGCUGG, the “self-splicing fitness (ln)” value (30 °C) was -4.54 ± 0.32 and the “self-splicing fitness (ln)” value (37 °C) is -2.64 ± 0.18.
